These results are taken from patent publication US20150315280A1 (Chugai, published 2015).

The target of the assay is T1, mouse NR 10 (mouse, UniProt Q8K5B1 19-716).
T1 construct: In the proliferation assays it is expressed on Ba/F3 cells together with mouse OSMR, with which it forms the IL-31 receptor; also called mNR 10; IL-31RA
T1 sequence: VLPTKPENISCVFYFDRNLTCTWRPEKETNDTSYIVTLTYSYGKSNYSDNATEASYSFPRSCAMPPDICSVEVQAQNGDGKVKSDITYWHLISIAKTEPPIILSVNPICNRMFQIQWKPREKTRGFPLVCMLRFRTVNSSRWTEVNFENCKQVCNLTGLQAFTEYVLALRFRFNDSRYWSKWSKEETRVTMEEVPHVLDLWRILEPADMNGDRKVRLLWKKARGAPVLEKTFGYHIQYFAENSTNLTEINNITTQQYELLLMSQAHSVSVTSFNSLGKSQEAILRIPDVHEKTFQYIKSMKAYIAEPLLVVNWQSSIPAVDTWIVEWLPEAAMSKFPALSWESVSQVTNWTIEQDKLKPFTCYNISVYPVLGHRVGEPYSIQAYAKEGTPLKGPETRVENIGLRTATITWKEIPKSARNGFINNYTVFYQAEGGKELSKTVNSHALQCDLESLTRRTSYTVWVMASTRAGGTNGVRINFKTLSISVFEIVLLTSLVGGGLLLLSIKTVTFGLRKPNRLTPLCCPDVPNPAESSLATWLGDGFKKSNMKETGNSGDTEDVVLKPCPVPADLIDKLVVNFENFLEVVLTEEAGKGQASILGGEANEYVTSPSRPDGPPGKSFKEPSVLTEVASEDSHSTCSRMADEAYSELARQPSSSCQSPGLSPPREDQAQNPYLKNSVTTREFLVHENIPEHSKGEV
Nature of the assay: immunohistochemical staining of auricles of chronic dermatitis model mice. The source says: The expression of human NR 10 was reported to be enhanced in thickened epidermis of atopic dermatitis patients (Non-patent Document 1). Auricles of the above-described chronic dermatitis model mice were immunohistochemically stained.

B1: BM095 in which the constant region was replaced with that of human IgG (antibody, V domains shown)
VH: not shown
VL: LPVLTQPPSVSVAPGQTARITCGGNNIGSKTVYWYQQEPGQAPVLVVYDDTDRPAGIPERFSGANSGNTATLTISRVEAGDEADYYCQVWDSSTDHGVFGGGTKLTVLG
With B1, the binding result is reported as “binds”.
